Source: US20180265558A1

Biological target: FGFR-1c expressed on BaF3 cells
Assay: cell-based or functional assay

- mitogenic potency on BaF3 cells expressing FGFR-1c, relative to wild-type FGF-1 (fold against wild-type FGF-1): 10
Substance: modified FGF-1 (S116R mutant protein) (from UniProt P05230 16-155) (ligand)
